The results in this text go back to paper PMC6515686, “Characterization of two flavonol synthases with iron-independent flavanone 3-hydroxylase activity from Ornithogalum caudatum Jacq” (BMC Plant Biology, 2019).

Holding throughout (assay): HPLC, Lineweaver-Burk
Common to all, as to format: biochemical, Albuca bracteata

Substrate in series [1]: O=C1C[C@@H](c2ccc(O)cc2)Oc2cc(O)cc(O)c21
Particulars: F3H activity, apparent Km, 2-oxoglutarate, Fe2+, ascorbate, pH 6.0, 20 °C. The source says:
(§1) HPLC, Lineweaver-Burk on OcFLS1

Substrate in series [2]: O=C1c2c(O)cc(O)cc2O[C@H](c2ccc(O)cc2)[C@H]1O
The following applies: FLS activity, apparent Km, 2-oxoglutarate, Fe2+, ascorbate, pH 6.0, 20 °C.
Source text: as §1

Substrate in series [3]: O=C1C[C@@H](c2ccc(O)cc2)Oc2cc(O)cc(O)c21
Particulars: F3H activity, apparent Km, 2-oxoglutarate, Fe2+, ascorbate, pH 6.0, 20 °C. The text has this:
(§2) HPLC, Lineweaver-Burk on OcFLS2
The source holds these as a separate data set.

Substrate in series [4]: O=C1c2c(O)cc(O)cc2O[C@H](c2ccc(O)cc2)[C@H]1O
Particulars: FLS activity, apparent Km, 2-oxoglutarate, Fe2+, ascorbate, pH 6.0, 20 °C.
Source text: as §2
This is another data set of the same source.

B1: OcFLS1 (Albuca bracteata) (protein)
chain: MEVERVQAIASMTASLGTIPAEFIRSEHERPDITTYHGPVPDIPVVDLSATDRAGVTKAIAEAAQEWGIFQVVNHRVPIEAIKELQRVGKEFFELPQEEKEAYATVPDSGSFEGYGTRLQKDLEGKKAWVDYLFHNVWPQSKITYRFWPNNPPEYRKANEEYAKYLQGVVDEMLTSLSLGLGLESHVLKEAVGGDELEYLLKINYYPPCPRPDLALGVVAHTDMSAITILVPNEVPGLQVFKDDHWFDAKYIPNALIVHIGDQIEILSNGKYKSVLHRTTVNKEKARMSWPVFCSPPGEMIVGPLPQLVSDENSAKFKTKKYKDYSYCKINKLPQ
On to B1, for which the Km was 37.57 ± 6.316 µM in “HPLC, Lineweaver-Burk [1]” and 471.3 ± 179 µM in the series “HPLC, Lineweaver-Burk [2]”. Besides, the Vmax in “HPLC, Lineweaver-Burk [1]” worked out at 2.05 µM/min; in “HPLC, Lineweaver-Burk [2]”, 12.9 µM/min.

B2: OcFLS2 (Albuca bracteata) (protein)
chain: MEVERVQAIASMTASLGTIPAEFIRSEHERPDITTYHGPVPDIPVIDLSDTDRAAVAKAIADAAQEWGIFQVVNHGIPVEAIKELQRVGKGFFELPQEEKEAYATVPDSGSFEGYGTKLQKDLGGKKAWVDYLFHNVWPESKINYRFWPNNPPEYRKANEEYAKYLQEVVDEMLSSLSVGLGLEGHVLKEAVGGDELEYLLKINYYPPCPRPDLALGVVAHTDMSAITILVPNEVPGLQVFKDDHWFDAKYIPNALIVHIGDQIEILSNGKYKSVLHRTTVNKEKARMSWPVFCSPPGEMIVGPLPQLVSDENPAKFKTKKYKEYSYCKINKLPQ
B2: in the series “HPLC, Lineweaver-Burk [3]”, the Km stood at 110.5 ± 20.86 µM and the Vmax was determined as 5.82 µM/min. Moreover, in “HPLC, Lineweaver-Burk [4]”, the Km is 525.7 ± 198.4 µM and the Vmax turned out to be 15.1 µM/min.
